The record followed here is patent US20070275898.

For the data set, the target named is β subunit of DNA polymerase III of Escherichia coli, P0A988.
Chain of β subunit of DNA polymerase III of Escherichia coli, P0A988 (P0A988 whole entry): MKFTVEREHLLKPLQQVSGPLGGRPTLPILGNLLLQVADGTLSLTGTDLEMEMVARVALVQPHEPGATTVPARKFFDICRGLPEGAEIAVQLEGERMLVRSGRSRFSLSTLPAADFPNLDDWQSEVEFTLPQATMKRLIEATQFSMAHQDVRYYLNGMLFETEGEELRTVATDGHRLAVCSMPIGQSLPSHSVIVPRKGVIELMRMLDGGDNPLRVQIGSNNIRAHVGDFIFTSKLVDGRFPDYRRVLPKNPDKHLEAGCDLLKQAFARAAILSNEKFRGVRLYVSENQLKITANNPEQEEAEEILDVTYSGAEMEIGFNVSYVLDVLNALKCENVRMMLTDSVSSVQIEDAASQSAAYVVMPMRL

B1: Pol IV DNA polymerase of Escherichia coli (protein)
chain: MRKIIHVDMDCFFAAVEMRDNPALRDIPIAIGGSRERRGVISTANYPARKFGVRSAMPTGMALKLCPHLTLLPGRFDAYKEASNHIREIFSRYTSRIEPLSLDEAYLDVTDSVHCHGSATLIAQEIRQTIFNELQLTASAGVAPVKFLAKIASDMNKPNGQFVITPAEVPAFLQTLPLAKIPGVGKVSAAKLEAMGLRTCGDVQKCDLVMLLKRFGKFGRILWERSQGIDERDVNSERLRKSVGVERTMAEDIHHWSECEAIIERLYPELERRLAKVKPDLLIARQGVKLKFDDFQQTTQEHVWPRLNKADLIATARKTWDERRGGRGVRLVGLHVTLLDPQMERQLVLGL
On to B1, for which the “growth rate (OD 600 nm) of E. coli on IPTG-induced expression” value is reported as “a clear growth inhibition was observed for the culture expressing the wild type Pol IV protein compared to the one expressing the mutant protein” and the “in vitro polymerase activity of Pol IV” value is “the in vitro activity of Pol IV is greatly enhanced by the presence of the β subunit loaded onto a primer/template DNA substrate”.
